Source: patent CN112794898A (YIKANG BIOLOGY SUZHOU CO LTD, dated 2021)

Target: SARS-CoV2 S蛋白受体结合域(RBD) (SARS-CoV2, UniProt P0DTC2 319-541)

B1: 单克隆抗体YK-CoV2-02的Fab (Fab, V domains shown)
VH: QVQLVESGGGLIQPGGSLRLSCAVSGFTVSSNYMSWVRQAPGKGLEWVSVIYPGGSTFYADSVKGRFTISRDNDNSKNTLYLQMNSLRAEDTAVYYCARDWVRGSNWGQGTLVTVSS
VL: EIVLTQSPATLSLSPGERATLSCRASQSVSNYLAWYQQKPGQAPRLLIYDASNRATGIPARFSGSGSGTDFTLTISSLEPEDFAVYYCQERSNWPSGTFGPGTKVDIK
- Kd: 4.03 nM
